Series [1] deals with T1, CCR4-NOT FULL (CCR4a E240A:CAF1 D40A) (Homo sapiens, UniProt A5YKK6;Q9NZN8;O75175;Q92600;Q9ULM6;Q9UIV1;Q9H9A5;Q9UKZ1 …, E240A;D40A). Nature of the series: EMSA; 1 uM protein, 100 nM RNA; preferred; EMSA: 20 mM Tris/HCl pH 7.5, 10 mM NaCl, 2 mM MgCl2, 0.1% BSA, 0.1% Orange G, 3% Ficoll 400; 100 nM RNA; 10% native PAGE in TBE pH 8.3; temperature not stated. Particulars: protein: recombinant; tags: NOT1 N-His10 and C-StrepII x2; other tags removed; copies: 1;1;1;1;1;1;1;1; label: labeled. Background: In EMSA bound probe runs differently from free probe, usually more slowly.

The target in series [2] is T1, CCR4-NOT FULL (CCR4a E240A:CAF1 D40A). As to the kind of experiment: EMSA; 1 uM protein, 100 nM RNA; EMSA: 20 mM Tris/HCl pH 7.5, 10 mM NaCl, 2 mM MgCl2, 0.1% BSA, 0.1% Orange G, 3% Ficoll 400; 100 nM RNA; 10% native PAGE in TBE pH 8.3; temperature not stated. Particulars: protein: recombinant; tags: NOT1 N-His10 and C-StrepII x2; other tags removed; copies: 1;1;1;1;1;1;1;1; label: 5' 6-FAM.

B1: poly(U)30 (ssRNA)
RNA: UUUUUUUUUUUUUUUUUUUUUUUUUUUUUU
For B1, the binding result in series [1] was “binds”.

B2: 13+7-mer-A20 (ssRNA)
RNA: CACAUCCAACUUCUCUAAAUAAAAAAAAAAAAAAAAAAAA
For B2, the binding result in series [2] was “binds”.

B3: 7-mer-A20 (ssRNA)
RNA: UCUAAAUAAAAAAAAAAAAAAAAAAAA
For B3, the binding result in series [2] was “binds”.

Source of the values: article PMC6639331, “Reconstitution of recombinant human CCR4-NOT reveals molecular insights into regulated deadenylation”.
